Test results from the nanobody polyreactivity screen of Harvey et al. (2022).

test: yeast display, Sf9 membrane polyspecificity reagent, FACS + sequencing; frameworks hold sequencing errors
Outline: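 Nanobodies from a synthetic yeast display library (Saccharomyces cerevisiae BJ5465), induced 36–48 hours with galactose, were stained 1 hour at 4 °C with 10% biotinylated, detergent-solubilized Sf9 membrane reagent, enriched on streptavidin microbeads, then FACS-sorted. Anti-HA (expression) and streptavidin (reagent binding) fluorescence set low and high (top ~1%) gates. Polyreactivity labels come from the gate of origin. Genes were colony-PCR amplified, MiSeq 2 × 250 sequenced and filtered by CDR length.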

Sequence	polyreactivity (PSR sort gate)
QVQLVESSGGLVQAGGSLSLICAASVLIFNFYSMGWYRQAPGKERELVDAISWNAGSTYYADSVKGRFTISRDNAKNTVYLQMNSLKPEDTAVYYCAVLPGRYDKTASHYDYWGQGTQVTVSS	low polyreactivity
QVKLVYSGGGLVQAGGSLRLSCAASVSIFYYYGMGWYRQAPVKERQLVAAITYRGTRTYYADSGKGRFTFSRDNAKTTVYLQMYSLKAEDTALYYCAAERRIYSSDSWGQGTQVTVSS	high polyreactivity
QVQLVESGGGLVQAGGSLRLSCAASGSISSKNAMGWYRQPPGKERQFDAVISGTGGSTYYADSVKGRFTISRDNAKNTVYLQMNSLKPEDTAVYYCAAAASSIVSYGYTWTYGYWGLGTQVTVSS	low polyreactivity
QVQLVESGGGLVQAGGSLRLICAASGSTFPVNAMGWYRQAPGKERELVAAIRSSTGRTYYADSVKGRFTISRDNAKNTVYLQMNSLKPEDTAVYYCAAYYLGQYEYDYWGQGTQVTVSS	low polyreactivity
QVQLEESGGGLVQAGGSIRLSCAASVSTFVGNAMGWYRKAPGKETEFVATISNSGGRTYYADSVKGRFTISRDNSKNTVYLQMNSLKPEDTAVYFCAADHPAFCPGYSFDYWGQGTQVTVTS	low polyreactivity
QVQLVESGGGLDQAGGSLRLSCAASGFTFARYTMGWYRQAPGKEREFVAAISWSGGRTYYADSVKGRFTISRDNAKNTVYLQMNSLKPEDTAVYYCAARRKTTKYDYWGQGTQVTVSS	high polyreactivity
QVQLEESGGGLVQAGGSLRLSCAASGFIFQYNAMGWYRQAPGKEREFVDAINYSGGNTYYADSVKGRFTISRDTAKNTVYLQMNSLKPEDTAVYYCNVRLWYGRWWYNRYNYWGQGTQVTVSS	high polyreactivity
QVQLQESGGGLVQAGGSLGCAASGNISTRSEMGWYRQAPGNEREFVATINSGGLTNYADSVKGRFTISRDNAKNTVNLRMNSLKPEDTAVYYRAVYGYFSDPYDYWGQGTQVTVSS	low polyreactivity
QVQLVESGGGLVQAGGSLRLSCAASGRIVGLYAKGWYRQAPGKERELVATITRRAGSTYYADSVKGRFTISRDYAKNTVYLLMNSLKPEDTAVYYCAASALRFNSRFSHWYNYWGQGTQVTVSS	high polyreactivity
QVQLVESGGGLVQAGGSLRLSCAASGRIFKWYAMGWYRQAPGKVRELVAAISARGGRTYYADSVKGRFTISRDNAKNTVYLQMNSLKPEDTAVYYCATDYVKSDAYKYYYWGQGTQVTVSS	high polyreactivity
QVQLVESGGGLVQAGGSLRLSCAASGFTFFNYGRGWSRQAHGKERELVAAISSNGGLTYYADSVKGRFTISRDNAKNTVYLQMNSLKPEDTAVYYCATLYYGRVDYDYWGQGTQVTVSS	high polyreactivity
QVQLVESGGGLVQAGGSLRLSCAASGSIFHVYAMGWYRQAPGKERELVAAIDRSGGSTYYADSVKGRFTISRDNAKNTVYLQMNSLKPEDTAVYYCAKDVLGGQITDGVGNDYWGQGTQVTVSS	low polyreactivity
QVQLVDSGGGLVQAGGSLRLSCAASGSTLAYYTMGWYRQAPGKERELVAAITSGGFTHYADSVKGRFTISRDNAKNTVYLQMNSLKPEDTAVYYCAAKRGPVYYGYYYLGQGTQVTVSS	high polyreactivity
QVQLVESGGGLVQAGGSLRLSCAASGRTFRKYGMGWYRQAPGKERELVAAITRSGGSTYYADSVKGRFTISRDNAKHTVYLQMNSLKPEDTSVSYCARSPVVVGSFLSYDYWGQGTQVTVSS	high polyreactivity
QVQLVESGGGLVQAGGSLRLSCAASGITFYAYAIGWYRQAPGKERELVAAITSSGGNTYYADSVKGRFTISRDNAKNTVYLQMKSLKPEDTAVYYCNIRRYWWWQMGYWGQGTQVTVSS	high polyreactivity
QDQLVDSRGGLVKAGGSLRLSCSASGRTFYYYAMGWSRQAPGQERELVADINTRVTSTYYADSVKGRFTISRDNAKNTVYLQMNSLKPEDTGVYYCAVDPYGDSWEDWLRNYYYGYDYWGQGTQVTVSS	low polyreactivity
QVQLVESGGGLVQAGGSLRLSCAASGSTFGRYAMGWYRQAPGKERELVAAISASGGSTYYADSVKGRFTISRDNAKNTVYLLMNSLKPEDTAVYYSAALIDVITGQYDYWGQGTQVTVSS	high polyreactivity
QVQLVESGGGLVQAGGSLRLSCAASGFTFTRYAMGWYRQAPGKERELVAAIRWSGGRTYYADSVKGRFTISRDNAKNTVYLQMNSLKPEDTAVYYCYAVFYDPRREYDYWGQGTQVTVSS	high polyreactivity
QVQLVESGGGLVQAGGSLRLSCAASGSIFGDNAMGWYRQAPGKERELVAAINYNGGRTYYADSVKGRFTISRDNAKNTVYLQMNSLKPEDTAVYYCAKDNYQAPVQQYPFDYWGQGTQVTVSS	low polyreactivity
QVQLVESGGGLVQAGGSLRLSCAASGSIFEDYAMGWYRQAPGKERELDAAIDWGDGDTYYADSVKGRFTISRDNAKNSVYLQMNSLKPEDTAVYYCAADLVGYSGDYFDEEYYWGQGTQVTVSS	high polyreactivity
QVQLVESGGGLVQAGGSLRLSCAASGFTFWVYAMGWYRQAPGKERELVAAISARGGSTYYADSVKVRFTISRDNAKNTVYLQMNRLKPEDTAVYYCAAEPSGKRSKFYYWGQGTQVTVSS	high polyreactivity
QVQLVESGGGLVQAGGSLRLSCAASGSIFLKYDMGWYRQAPGKERELVAAISRGGDTNYADSVKGLFTISRDNAKNCVYLQMNSLKPEDTAVYDCAARPGLYFTRRGRYYLGQGTQVTVSS	high polyreactivity

Sequence	polyreactivity (PSR sort gate)
QVQLVESGGGLVQAGGSLRLSCAASGRIFLGNAMGWYRPAPGKERELVAAITNGGGSTYYADSVNGRFTISRDNAKNTVYLQMNSLKPEDTAVYYCAAQRWTVKYNYWGQGTQVTVSS	high polyreactivity
QVQLVESGGGLVQAGGSLRLSCAASGRTFGYYRMGWYRQAPGKERELVAAITGSGGSTYYADSVKGRFTISRDNAKNTVYLQMNSLKAEDTAVYYCAATYLSRWTLYDYWGQGTQVTVSS	high polyreactivity
QVQLVESGGGLVQAGGSLRLSCAASGLTFHTNTMGWYRQAPGKERELVAAITWRDDSTYYADSVKGRFTISRDYAMNTVYLQMNSLKPEDTAVFYCAARGGAYLWYHYDYWGQGTQVTVSS	low polyreactivity
QVQLVESGGGLVQPEGSLRLSSAASGRTFDYYALGWYRQAPGKERELVAAITWRGVSTYYADSVKGRFTISRDNAKNTVYLQMNSLKPEDTAVYYCAAYSYPYWQKRPYDYWGQGTQVTVSS	low polyreactivity
QVHLVESGGGLVQAGGCLRLSCAASGYIFKSYVMGWYRQAPGKERELVAAITWSGGSTYYADSVKGRFTMSRDNAKNTVYFQMNSLKPEDTAVYYCAAYPRRYRTTYDYWRQGTQVTVSS	high polyreactivity
QVQLVESGGGLVQAGGSLPLSCAASGITFHRYAMGWDRQAPGKERELVAAMSRGASTNYADSVKGRFTISRDNAKNTVYLQMNSLKPEDTAVYYCAARTIGWYSGSRFDYWGQCTQVTVSS	high polyreactivity
QVQLVESGGGLVQAGGTLRLSCAASGFIFENYAMGWYRQAPGKERELVAAISSSGGSTYYADSVKGRFTISRDNAKNTVYLQMNSLKPEDTAVYYCAKDYAPSATKLHYWGQGTQVTVSS	low polyreactivity
QVQLVDSGGAIVQAGGSLRLSCAASGRTYHRNSKGWYRQAPGKERELVAAITGDGRTNYADSVKGRFTISRDNAKNTVFLPINSLKPEDTAVYYCAATFGFFYYHYDYWGQGTQVTVSS	low polyreactivity
QVQLVESGGGLVQAGGSLRLSCAASGSTFGWYAMGWYRQAPGKERELVAAINSSGDRTYYADSVKGRFTISRDNAKINVYLQMNSLKPEDTAVYYCAATYWARNWRYDYWGQGTQVTVSS	high polyreactivity
QVQLVESGGGLVQAGGSLRLSCAASGRTFTFYAMGWYRQAPGKERELVAAIRRGGSTIYADSVKGRFTISRDNAKNTVYLQMNSLKPEDTAVYYCNKRVWYPYWTLDYWGQGTQVTVSS	low polyreactivity
QVQLVESGGGLVQAGGSLRLSCAASGFIFRIYAMGWYRQAPGKERELVAAITWDGVSTYYADSVKGRFTISRDNAKNTVYLQMNSLKPEDTAVFYCAARKRSYPYYYWGQGTQVNVSS	high polyreactivity
QVQLVESGGGLVQAGGSLRLSCAASGSTFRGYAMGWYRQAPGKERELVAAITRGGSTYYADSVKGRFTISRDNAKNTVYLQMNSLKPEDTAVYYFYDYWGQGTQVTVSS	low polyreactivity
QVQLVESGGGLVQAGGSLRLSCAASGRIFTHNAMGWYRQAPGKERELVAAITIGGRTNYADSVKGRFTISRDNAKNTVYLQMNSLKPEDTAVYYCARRYGTWNAYDYWGQGTQVTVSS	low polyreactivity
QVQLVESGGGLVQAGGSLRLSCAASGSTFEYNAMGWYRQAPGKESELVASSTNYADSVKGRFTISRDNAKNTVYFQMNSLKPEDTAVYYCSREQGVNRNHDYWGQGTQVTVSS	low polyreactivity
QVQLVESGGGLDQAGGSLRLTCAASGFTFQVYAMGWYRQAPGKERELVADITSGTSTNYADSVKGRFTSSRDNAKNTVYLQMNSLKPEDTAVYYCANVYTYKSFDYWGQGTQVTVSS	low polyreactivity
QVQLVESGGGLVQAGGSLRLSCAASGSTFPPNAMGWYRQAPGKERELVAGINGSGGRTYYADSVKGRFTISRDNAKNTVYLQLNCMKPEDTAVYYCAAEGTTIWFDLTYDDWYEYYSWGQGTQVTVSS	high polyreactivity
QVQLVESGGGLVQAGGSLRLSCAASGFSFKYYAMGWYRQAPGKERELVATIRRGGSTYADSVKGRFTISRDNAKNSVYLQMNSLKPDDTAVYYCATRISSSTVPLYYFSGYNYWGQGTQVTVSS	high polyreactivity
QVQLVESGGGLVQAGGSLRLSCAASGRTFYSYTMGWYRQAPGKERELVAAINRGGSTYYADSVKGRFTISRDNAKNTVYLQMNSLYPVDNAVYYCAVGYAHSSNRRYYYKQTHGYWGQGTQVTVSS	low polyreactivity
QVQLVESGGGLVQAGGSLRLSCAASGIIFARYAMGWYRQAPGKERELVAAINWSGGDTYYADSVKGRFTISRDNAKNTVYLEMNSLIPEDTAVYYCSKVISYLVVLPRTERYEGDYWGQGTQVSVSS	low polyreactivity
QVQLVESGGGLVQAGGSLRLSCAASGYIFTPYAMGWYRQAPGKERELVAAITGSGSSTYYADSVKGRFTISRDNAKNTVYLQMNSLKPEDTAVYYCAADSYGFYGYYYYELEYWGQGTQVTVSS	low polyreactivity
QVQLVESGGGLVQAGGSLRLSCAASGFTFKKYAMGWYRQAPGKERELVAAISSSGGRTTYADSVKGRFTISRDNAKNTVYLQMNSLKPEDTAVYYCNADRYTAVRAYDYWGQGTQVTVSS	low polyreactivity
